Assay [1] concerns the target Paracentrotus lividus RAF, 6 MYC tags (Paracentrotus lividus). Put plainly: co-IP; lysates of co-transfected HEK293T cells (200 ul at 0.5 mg/ml); mouse anti-myc 9E10 overnight at 4 °C, Dynabeads Pan mouse IgG 2 h; five washes in 50 mM Tris HCl pH 7.5, 150 mM NaCl, 10% glycerol, 0.2% Triton X100, 1 mM EDTA; blots with rabbit anti-HA and anti-Myc.
Assay [2] addresses Paracentrotus lividus RAF, 6 MYC tags. The assay is described as follows: co-immunoprecipitation (IP anti-Myc of Pl. RAF, blot quantified). The conditions noted are these: parent: 1; read off a plot.

Sequence of Paracentrotus lividus RAF, 6 MYC tags (Paracentrotus lividus) (main, as listed by the source): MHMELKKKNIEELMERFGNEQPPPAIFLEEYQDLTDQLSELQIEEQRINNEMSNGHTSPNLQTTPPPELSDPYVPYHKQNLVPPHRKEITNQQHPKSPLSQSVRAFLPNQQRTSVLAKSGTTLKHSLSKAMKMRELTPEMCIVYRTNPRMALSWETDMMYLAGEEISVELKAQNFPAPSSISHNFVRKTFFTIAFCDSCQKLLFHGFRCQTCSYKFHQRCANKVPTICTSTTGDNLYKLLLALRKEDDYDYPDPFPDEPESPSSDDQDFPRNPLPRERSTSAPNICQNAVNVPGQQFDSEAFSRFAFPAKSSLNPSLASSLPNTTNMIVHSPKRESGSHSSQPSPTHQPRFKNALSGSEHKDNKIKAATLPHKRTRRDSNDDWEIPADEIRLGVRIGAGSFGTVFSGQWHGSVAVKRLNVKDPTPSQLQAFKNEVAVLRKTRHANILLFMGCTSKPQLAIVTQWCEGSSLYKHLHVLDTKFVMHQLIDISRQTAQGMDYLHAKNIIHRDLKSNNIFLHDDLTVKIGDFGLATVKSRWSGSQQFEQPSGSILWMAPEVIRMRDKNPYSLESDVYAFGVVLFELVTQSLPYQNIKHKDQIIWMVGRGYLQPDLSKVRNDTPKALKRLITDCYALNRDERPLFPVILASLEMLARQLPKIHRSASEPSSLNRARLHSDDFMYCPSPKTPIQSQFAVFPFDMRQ

“Paracentrotus lividus KSR3 S361E (natural protein)” showed a fold change of RAF co-immunoprecipitated, against wild-type KSR3 in assay [1] of 1.5 fold.

For “Paracentrotus lividus KSR3, wild type, 3HA-tagged S361E; R364H”, in assay [2], the ratio to parent (arbitrary units) came to 0.46.
